Results reported in US20230125561A1 (published 2023).

Target: SARS-CoV-2 Spike S1 protein, B.1.351 (S. African) variant (SARS-CoV-2, UniProt P0DTC2 16-685)
Assay: ELISA

B1: Neumifil (HEX17: trimeric (hexavalent) form based on S. pneumoniae CBM40) (designed binder)
chain: GAMVIEKEDVETNASNGQRVDLSSELDKLKKLENATVHMEFKPDPKAPAFYNLFSVSSATKKDEYFTMAVYNNTATLEGRGSDGKQFYNNYNDAPLKVKPGQWNSVTFTVEKPTAELPKGRARLYVNGGLSRTSLRSGNFIKDMPDVTHVQIGATKRANNTVWGSNLQIRNLTVYNRALTPEEVQKRSGGGSGVIEKEDVETNASNGQRVDLSSELDKLKKLENATVHMEFKPDPKAPAFYNLFSVSSATKKDEYFTMAVYNNTATLEGRGSDGKQFYNNYNDAPLKVKPGQWNSVTFTVEKPTAELPKGRARLYVNGGLSRTSLRSGNFIKDMPDVTHVQIGATKRANNTVWGSNLQIRNLTVYNRALTPEEVQKRSGGSLGVPDFESDWFDVSSNSLYTLSHGLQRSPRRVVVEFARSSSPSTWNIVMPSYFNDGGHKGSGAQVEVGSLNIKLGTGAAVWGTGYFGGIDNSATTRFATGYYRVRAWI
EC50: 0.17 µg/mL
